Test results: the supplement of paper PMC10567573

B1: ZNF449 (parent)
chain: HTGERPYECTVCKKRFTRRSHLIG
B2: KRT13 (parent)
chain: TSSASVTTTSNASGRRTSDVRRP

Variants of: B1
Test: protein stability index of a GFP-peptide fusion (GPS, HEK-293T) (PSI 1-6); higher = more stable
Details: c terminus: a fixed tail appended
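Further: lentivirally expressed fusions sorted by FACS into six bins by GFP to DsRed ratio, PSI derived from sequencing read proportions per bin multiplied by bin number.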

Protein stability index of substitutions, site by site:
G3: T 2.12 | I 2.39 | Q 3.59
K13: I 2.06 | Q 2
H21: Y 2.35 | E 2.31 | T 2.83
L22: S 2.92
R5: Y 2.82 | E 2.33
G24: W 2.53 | M 1.83 | R 2.39 | S 2.61
I23: K 4.19 | M 1.7 | T 2.41
Y7: G 2.01 | P 2.07
F16: G 2.82 | I 1.71
S20: N 2.69 | W 3.27 | Q 1.88 | P 2.31
E8: D 2.72 | S 2.32 | L 2.77 | G 1.84
T17: N 2.21 | P 1.78
V11: N 2.8 | L 2.08 | G 2.99 | C 2.29
T2: R 2.12 | L 2.45 | W 2.13 | P 1.8 | M 1.76 | H 3.18
P6: G 2.77 | M 2.74 | H 2.64 | I 2.08 | R 1.82 | T 2.58
H1: V 2.39 | S 1.85 | C 2.48
K14: D 2.29 | Q 1.75
C9: V 3.01
T10: Y 3.04 | I 3.07 | C 2.54
R19: M 1.53
R18: N 1.62 | M 1.5 | G 2.12
R15: Q 1.79
E4: R 1.96 | Y 1.58 | L 1.5 | W 1.8 | P 2.04
C12: N 3.42 | D 3.99 | L 1.55

Variants of: B2
Test: as above
Details: c terminus: native

Protein stability index of substitutions, site by site:
S5: E 3.07 | T 4.31 | Q 2.59 | K 1.9 | A 2.49 | F 3.27 | M 1.88 | H 3.91 | G 2.79 | D 2.48 | C 3.15 | I 2.37 | N 2.44
V20: N 2.13 | H 2.51 | K 2.73 | T 4.51 | A 1.63 | C 2.16 | Q 2.06 | E 2.52 | D 1.76 | Y 2.38 | P 2.31 | G 2.03 | I 4.34
D19: C 2.52 | V 3.02 | M 3.59 | P 2.86 | K 2.25 | L 2.61 | Y 1.92 | F 2.83 | S 2.07 | H 1.73 | R 2.08 | I 2.44 | N 2.26 | T 2.69
T9: E 2.58 | F 2.13 | H 3.88 | P 1.97 | K 2.19 | G 1.73 | D 2.05 | V 2.72 | N 1.81 | C 1.54
A12: F 3.48 | H 3.71 | I 2.81 | C 3.03 | P 2.25 | D 3.12 | L 2.53 | S 2.19
P23: M 4.45 | L 4.45 | Q 3.43 | H 1.77 | N 2.27 | Y 4.86 | S 2.36 | K 4.84 | C 2.42 | G 3.15 | E 1.59 | W 4.6 | R 3.9 | T 4.53 | F 4.92 | I 4.47
A4: P 1.7 | I 3.97 | N 2.16 | E 2.39 | K 3.21 | L 3.6 | Q 2.03 | W 2.44 | S 1.03 | Y 2.51 | T 2.02 | D 3.4 | H 2.6 | G 2.25
T17: N 2.15 | I 3.61 | H 2.66 | Y 2.3 | C 2.94 | S 2.16 | L 1.45 | D 2.62 | M 2.44 | E 1.63
R22: T 1.84 | S 1.88 | K 2.13 | P 2.62 | V 2.08 | H 3.45 | N 3.07 | A 2.49 | W 2.04 | Q 2.71 | I 2.77 | M 3.05 | D 1.93 | E 1.75 | L 1.38 | Y 1.75
R15: E 2.43 | C 2.17 | L 2.37 | N 2.6 | A 2.17 | I 2.36 | P 1.73 | T 1.94 | Y 2.03 | H 2.61 | K 1.49 | D 2.25 | Q 2.53 | F 1.88
S13: P 2.41 | R 1.4 | L 2.47 | W 1.04 | A 2.97 | Q 1.37 | V 3.04 | D 1.45 | T 5.7 | E 1.7 | G 1.7 | K 1.94
R16: A 1.65 | C 1.27 | W 2.87 | G 1.04 | N 2.05 | F 2.27 | E 2.08 | H 2.37 | P 2.52 | I 2.33 | K 1.59 | Q 1.52 | D 1.66 | M 2.14 | S 2.11 | T 3.07 | Y 3.97
T8: G 2.26 | F 2.35 | D 2.08 | Q 3.25 | P 1.64 | A 3.85 | K 3.7 | E 3.31 | Y 3.44 | N 2.98
R21: Q 5.75 | F 5.07 | K 5.25 | S 5.41 | M 5.27 | H 5.55 | P 5.33 | L 4.89 | Y 5.15 | A 5.32 | W 5.35 | N 5.24 | D 5.12 | C 4.97 | E 5.51 | T 5.55 | I 4.91 | V 4.97
S10: C 4.58 | D 2.05 | T 1.6 | F 2.96 | V 2.99 | Y 1.98 | Q 2.12 | P 2.11 | E 2.03 | H 2.48
N11: L 2.98 | I 1.08 | K 1.86 | D 1.71 | E 3.41 | P 1.12 | A 3.09 | R 2.36 | F 2.92 | Y 3.34 | H 1.8 | T 2.74 | V 1.98 | G 2.7
G14: E 2.97 | P 1.88 | D 1.88 | T 2.3 | R 2.21 | Y 2.32 | C 1.75 | I 2.46 | V 2.64 | S 3.57 | L 3.71 | Q 2.23 | N 2.03 | M 3.29 | A 3.4
V6: S 1.09 | P 2.51 | G 2.71 | N 2.44 | Q 1.69 | L 2.31 | K 2.39 | R 1.97 | D 2.88 | T 3.08 | A 2.14 | C 4.46 | F 1.93
S18: A 4.56 | L 2.03 | T 2.85 | Q 2.82 | G 1.23 | D 2.19 | M 1.77 | P 2.02 | E 2.45 | F 1.56 | K 1.3 | V 3.51
T7: N 1.45 | G 1.17 | K 2.19 | D 3.4 | Q 1.3 | Y 4.47 | A 2.46 | I 1.93 | H 2.54 | P 1.66 | R 2.97 | F 2.24 | W 3.38 | L 2.23 | M 3.08
